The values that follow come from patent US20150147318A1 (ZOETIS SERVICES, published 2015).

For assay [1], the target named is T1, recombinant canine Nerve Growth Factor (Canis lupus familiaris NGF) (canine (Canis lupus familiaris), UniProt Q29074 110-229 (pig entry), limits assumed).
T1 chain: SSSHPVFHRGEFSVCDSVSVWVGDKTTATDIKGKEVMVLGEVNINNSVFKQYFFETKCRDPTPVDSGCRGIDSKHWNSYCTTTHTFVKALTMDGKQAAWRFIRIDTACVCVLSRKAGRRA
The experiment in a line: cell-based or functional assay.

The target of assay [2] is T1, recombinant canine Nerve Growth Factor …. The experiment in a line: method not stated; recombinant canine NGF.
Assay [3] has the same target. The assay is described as follows: SPR trkA inhibition: mAb pre-incubated with NGF, binding of NGF to trkA measured in RU.

B1: murine anti-NGF monoclonal antibody RN911 (antibody, V domains shown)
VH: QVQLKESGPGLVAPSQSLSITCTVSGFSLIGYDINWVRQPPGKGLEWLGMIWGDGTTDYNSALKSRLSISKDNSKSQVFLKMNSLRTDDTATYSCARGGYYYGTSYYFDYWGQGTTLTVSS
VL: DIQMTQTTSSLSASLGDRVTISCRASQDISNHLNWYQQKPDGTVKLLIYYISRFHSGVPSRFSGSGSGTDYSLTISNLEQEDIATYFCQQSKTLPYTFGGGTKLEIKR
notes: Mouse mAb; also called MU-RN911
A word on the Kd: it is the equilibrium constant for the complex coming apart. As a reminder, the Ki is the dissociation constant of the complex between target and ligand, obtained from inhibition or displacement. As to B1, in assay [1], the “EC50, pERK inhibition, PC-12 (Rat Neuronal), pre-incubation 1 hour, 2/23/11 (RN911)” value was 0.67 nM; the “EC50, pERK inhibition, PC-12 (Rat Neuronal), pre-incubation 1 hour, 3/26/11 (RN911)” value came to 0.46 nM; the “EC50, pERK inhibition, huTrkA (CHO), pre-incubation 1 hour, 3/26/11 (RN911)” value amounted to 0.47 nM; the “EC50, pERK inhibition, huTrkA (CHO), pre-incubation 1 hour, 3/31/11 (RN911)” value was 0.62 nM. In assay [1], the “EC50, pERK inhibition, huTrkA (CHO), pre-incubation 6 hour, 3/31/11 (RN911)” value is 0.57 nM. The Kd in assay [2] came out at 0.755 nM. Moreover, the Ki in assay [3] was 4.2 nM.
